Consider one protein from article PMC3181147 (Structure (London, England : 1993), 2010).

The series concerns the molecule itself. The series can be described thus: AUC.

B1: phosphorylated intracellular domain of PknB_(1-330) (kinase domain and juxtamembrane linker) (domain or fragment)
chain: MTTPSHLSDRYELGEILGFGGMSEVHLARDLRLHRDVAVKVLRADLARDPSFYLRFRREAQNAAALNHPAIVAVYDTGEAETPAGPLPYIVMEYVDGVTLRDIVHTEGPMTPKRAIEVIADACQALNFSHQNGIIHRDVKPANIMISATNAVKVMDFGIARAIADSGNSVTQTAAVIGTAQYLSPEQARGDSVDARSDVYSLGCVLYEVLTGEPPFTGDSPVSVAYQHVREDPIPPSARHEGLSADLDAVVLKALAKNPENRYQTAAEMRADLVRVHNGEPPEAPKVLTDAERTSLLSSAAGNLSGPRTDPLPRQDLDDTDRDRSIGSVG
A word on the Kd: it is the free concentration of one partner at which half of the binding sites on the other are occupied at equilibrium, for simple one-to-one binding. B1 came in with a Kd of about 2900 µM.
